Experimental data from the supplement of paper PMC5998384.

Experiments:
HeLa Kyoto [1] = experiment: solubility in G1/S (NP-40 vs SDS abundance) (log2 ratio); higher = more soluble; conditions: cell cycle stage: G1/S
HeLa Kyoto [2] = experiment: solubility change mitosis vs G1/S (difference of NP-40 vs SDS log2 ratios) (log2 ratio difference); higher = more soluble in mitosis
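Wherever solubility change mitosis vs G1/S (difference of NP-40 vs SDS log2 ratios) is given: synchronized HeLa Kyoto cells (double thymidine block for G1/S, nocodazole release for mitosis), protein amounts in NP-40 versus SDS lysates quantified by mass spectrometry, three biological replicates.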
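Wherever solubility in G1/S (NP-40 vs SDS abundance) is given: HeLa Kyoto cells arrested at G1/S by double thymidine block, proteins quantified by TMT10plex mass spectrometry in mild NP-40 versus SDS extracts, three biological replicates.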

## MDNAVDGLDKASIANSDGPTAGSQTPPFKRKGKLSTIGKIFKPWKWRKKKTSDKFRETSAVLERKISTRQSREELIRRGVLKELPDQDGDVTVNFENSNGHMIPIGEESTREENVVKSEEGNGSVSEKTPPLEEQAEDKKENTENHSETPAAPALPPSAPPKPRPKPKPKKSPVPPKGATAGASHKGDEVPPIKKNTKAPGKQAPVPPPKPASRNTTREAAGSSHSKKTTGSKASASPSTSSTSSRPKASKETVSSKAGTVGTTKGKRKTDKQPITSHLSSDTTTSGTSDLKGEPAETRVESFKLEQTVPGAEEQNTGKFKSMVPPPPVAPAPSPLAPPLPLEDQCITASDTPVVLVSVGADLPVSALDPSQLLWAEEPTNRTTLYSGTGLSVNRENAKCFTTKEELGKTVPQLLTPGLMGESSESFSASEDEGHREYQANDSDSDGPILYTDDEDEDEDEDGSGESALASKIRRRDTLAIKLGNRPSKKELEDKNILQRTSEEERQEIRQQIGTKLVRRLSQRPTTEELEQRNILKQKNEEEEQEAKMELKRRLSRKLSLRPTVAELQARRILRFNEYVEVTDSPDYDRRADKPWARLTPADKAAIRKELNEFKSTEMEVHEESRQFTRFHRP [PHACTR2]
HeLa Kyoto [1]
  solubility in G1/S (log2): 0.45
HeLa Kyoto [2]
  solubility change mitosis (log2): -0.286

## MDPDPQAGVQVGMRVVRGVDWKWGQQDGGEGGVGTVVELGRHGSPSTPDRTVVVQWDQGTRTNYRAGYQGAHDLLLYDNAQIGVRHPNIICDCCKKHGLRGMRWKCRVCLDYDLCTQCYMHNKHELAHAFDRYETAHSRPVTLSPRQGLPRIPLRGIFQGAKVVRGPDWEWGSQDGGEGKPGRVVDIRGWDVETGRSVASVTWADGTTNVYRVGHKGKVDLKCVGEAAGGFYYKDHLPRLGKPAELQRRVSADSQPFQHGDKVKCLLDTDVLREMQEGHGGWNPRMAEFIGQTGTVHRITDRGDVRVQFNHETRWTFHPGALTKHHSFWVGDVVRVIGDLDTVKRLQAGHGEWTDDMAPALGRVGKVVKVFGDGNLRVAVAGQRWTFSPSCLVAYRPEEDANLDVAERARENKSSLSVALDKLRAQKSDPEHPGRLVVEVALGNAARALDLLRRRPEQVDTKNQGRTALQVAAYLGQVELIRLLLQARAGVDLPDDEGNTALHYAALGNQPEATRVLLSAGCRADAINSTQSTALHVAVQRGFLEVVRALCERGCDVNLPDAHSDTPLHSAISAGTGASGIVEVLTEVPNIDVTATNSQGFTLLHHASLKGHALAVRKILARARQLVDAKKEDGFTALHLAALNNHREVAQILIREGRCDVNVRNRKLQSPLHLAVQQAHVGLVPLLVDAGCSVNAEDEEGDTALHVALQRHQLLPLVADGAGGDPGPLQLLSRLQASGLPGSAELTVGAAVACFLALEGADVSYTNHRGRSPLDLAAEGRVLKALQGCAQRFRERQAGGGAAPGPRQTLGTPNTVTNLHVGAAPGPEAAECLVCSELALLVLFSPCQHRTVCEECARRMKKCIRCQVVVSKKLRPDGSEVASAAPAPGPPRQLVEELQSRYRQMEERITCPICIDSHIRLVFQCGHGACAPCGSALSACPICRQPIRDRIQIFV [MIB2]
HeLa Kyoto [1]
  solubility in G1/S (log2): -0.12
HeLa Kyoto [2]
  solubility change mitosis (log2): -0.0211

## MDPIRSFCGKLRSLASTLDCETARLQRALDGEESDFEDYPMRILYDLHSEVQTLKDDVNILLDKARLENQEGIDFIKATKVLMEKNSMDIMKIREYFQKYGYSPRVKKNSVHEQEAINSDPELSNCENFQKTDVKDDLSDPPVASSCISEKSPRSPQLSDFGLERYIVSQVLPNPPQAVNNYKEEPVIVTPPTKQSLVKVLKTPKCALKMDDFECVTPKLEHFGISEYTMCLNEDYTMGLKNARNNKSEEAIDTESRLNDNVFATPSPIIQQLEKSDAEYTNSPLVPTFCTPGLKIPSTKNSIALVSTNYPLSKTNSSSNDLEVEDRTSLVLNSDTCFENLTDPSSPTISSYENLLRTPTPPEVTKIPEDILQLLSKYNSNLATPIAIKAVPPSKRFLKHGQNIRDVSNKEN [SKA3]
HeLa Kyoto [1]
  solubility in G1/S (log2): 0.436
HeLa Kyoto [2]
  solubility change mitosis (log2): 0.0344

## MDPLRAQQLAAELEVEMMADMYNRMTSACHRKCVPPHYKEAELSKGESVCLDRCVSKYLDIHERMGKKLTELSMQDEELMKRVQQSSGPA [TIMM10]
HeLa Kyoto [1]
  solubility in G1/S (log2): -0.415
HeLa Kyoto [2]
  solubility change mitosis (log2): 0.197

## MDPRGILKAFPKRQKIHADASSKVLAKIPRREEGEEAEEWLSSLRAHVVRTGIGRARAELFEKQIVQHGGQLCPAQGPGVTHIVVDEGMDYERALRLLRLPQLPPGAQLVKSAWLSLCLQERRLVDVAGFSIFIPSRYLDHPQPSKAEQDASIPPGTHEALLQTALSPPPPPTRPVSPPQKAKEAPNTQAQPISDDEASDGEETQVSAADLEALISGHYPTSLEGDCEPSPAPAVLDKWVCAQPSSQKATNHNLHITEKLEVLAKAYSVQGDKWRALGYAKAINALKSFHKPVTSYQEACSIPGIGKRMAEKIIEILESGHLRKLDHISESVPVLELFSNIWGAGTKTAQMWYQQGFRSLEDIRSQASLTTQQAIGLKHYSDFLERMPREEATEIEQTVQKAAQAFNSGLLCVACGSYRRGKATCGDVDVLITHPDGRSHRGIFSRLLDSLRQEGFLTDDLVSQEENGQQQKYLGVCRLPGPGRRHRRLDIIVVPYSEFACALLYFTGSAHFNRSMRALAKTKGMSLSEHALSTAVVRNTHGCKVGPGRVLPTPTEKDVFRLLGLPYREPAERDW [POLL]
HeLa Kyoto [1]
  solubility in G1/S (log2): 0.0728
HeLa Kyoto [2]
  solubility change mitosis (log2): -0.00139

## MDPSADTWDLFSPLISLWINRFYIYLGFAVSISLWICVQIVIKTQGKNLQEKSVPKAAQDLMTNGYVSLQEKDIFVSGVKIFYGSQTGTAKGFATVLAEAVTSLDLPVAIINLKEYDPDDHLIEEVTSKNVCVFLVATYTDGLPTESAEWFCKWLEEASIDFRFGKTYLKGMRYAVFGLGNSAYASHFNKVGKNVDKWLWMLGAHRVMSRGEGDCDVVKSKHGSIEADFRAWKTKFISQLQALQKGERKKSCGGHCKKGKCESHQHGSEEREEGSHEQDELHHRDTEEEEPFESSSEEEFGGEDHQSLNSIVDVEDLGKIMDHVKKEKREKEQQEEKSGLFRNMGRNEDGERRAMITPALREALTKQGYQLIGSHSGVKLCRWTKSMLRGRGGCYKHTFYGIESHRCMETTPSLACANKCVFCWRHHTNPVGTEWRWKMDQPEMILKEAIENHQNMIKQFKGVPGVKAERFEEGMTVKHCALSLVGEPIMYPEINRFLKLLHQCKISSFLVTNAQFPAEIRNLEPVTQLYVSVDASTKDSLKKIDRPLFKDFWQRFLDSLKALAVKQQRTVYRLTLVKAWNVDELQAYAQLVSLGNPDFIEVKGVTYCGESSASSLTMAHVPWHEEVVQFVHELVDLIPEYEIACEHEHSNCLLIAHRKFKIGGEWWTWIDYNRFQELIQEYEDSGGSKTFSAKDYMARTPHWALFGASERGFDPKDTRHQRKNKSKAISGC [TYW1]
HeLa Kyoto [1]
  solubility in G1/S (log2): -0.157
HeLa Kyoto [2]
  solubility change mitosis (log2): -0.205

## MDPVVLSYMDSLLRQSDVSLLDPPSWLNDHIIGFAFEYFANSQFHDCSDHVSFISPEVTQFIKCTSNPAEIAMFLEPLDLPNKRVVFLAINDNSNQAAGGTHWSLLVYLQDKNSFFHYDSHSRSNSVHAKQVAEKLEAFLGRKGDKLAFVEEKAPAQQNSYDCGMYVICNTEALCQNFFRQQTESLLQLLTPAYITKKRGEWKDLITTLAKK [SENP8]
HeLa Kyoto [1]
  solubility in G1/S (log2): 0.62
HeLa Kyoto [2]
  solubility change mitosis (log2): -0.151

## MDQFGDILEGEVDHSFFDSDFEEGKKCETNSVFDKQNDDPKERIDKDTKNVNSNTGMQTTENYLTEKGNERNVKFPPEHPVENDVTQTVSSFSLPASSRSKKLCDVTTGLKIHVSIPNRIPKIVKEGEDDYYTDGEESSDDGKKYHVKSKSAKPSTNVKKSIRKKYCKVSSSSSSSLSSSSSGSGTDCLDAGSDSHLSDSSPSSKSSKKHVSGITLLSPKHKYKSGIKSTETQPSSTTPKCGHYPEESEDTVTDVSPLSTPDISPLQSFELGIANDQKVKIKKQENVSQEIYEDVEDLKNNSKYLKAAKKGKEKHEPDVSSKSSSVLDSSLDHRHKQKVLHDTMDLNHLLKAFLQLDKKGPQKHHFDQPSVAPGKNYSFTREEVRQIDRENQRLLKELSRQAEKPGSKSTIPRSADHPPKLYHSALNRQKEQQRIERENLALLKRLEAVKPTVGMKRSEQLMDYHRNMGYLNSSPLSRRARSTLGQYSPLRASRTSSATSGLSCRSERSAVDPSSGHPRRRPKPPNVRTAWL [CFAP97]
HeLa Kyoto [1]
  solubility in G1/S (log2): 0.0651
HeLa Kyoto [2]
  solubility change mitosis (log2): -0.039

## MDRRKKPLDVTASSLVDLKAELFRKQEEFKQEKLLKDSGVFGKPKTTNKKPSIWSKQNVGVSNRAEKDAEQKIEEQKTLDKAREKLEEKAKLYEKMTKGDFIDEEVEDMYLVDFTQKIIDKRKEMEASGAHRDSQKAGERDDDEENLPEGEIPPPQDPSEEWVDYVDSLGRSRRCMRKDLPDLLEMDKNLQGRLFISPANEKTLLSEDMRKELQRQQWEEEEREALKRPMGPVHYEDIRENEARQLGVGYFAFARDKELRNKQMKTLEMLREQTTDQRTKRENIKEKRKAILEARLAKLRQKKMKKSKEGGTEEENRDGDVIGPLPPEPEAVPTPRPAAQSSKVEVIVQERKDTKPGVPHIREWDRGKEFSFGYWSKRQSDLRAERDPEFAPPSDYFVGQKRTGFSSSQAWSRPGPAQSDPGQCPDQSHGPSPEHTSPTPAPDNPPQAPTVTFKTLDDMISYYKQVT [CCDC174]
HeLa Kyoto [1]
  solubility in G1/S (log2): 0.12
HeLa Kyoto [2]
  solubility change mitosis (log2): 0.139

## MDSSSSSSAAGLGAVDPQLQHFIEVETQKQRFQQLVHQMTELCWEKCMDKPGPKLDSRAEACFVNCVERFIDTSQFILNRLEQTQKSKPVFSESLSD [TIMM8A]
HeLa Kyoto [1]
  solubility in G1/S (log2): -0.653
HeLa Kyoto [2]
  solubility change mitosis (log2): 0.392

## MEAEESEKAATEQEPLEGTEQTLDAEEEQEESEEAACGSKKRVVPGIVYLGHIPPRFRPLHVRNLLSAYGEVGRVFFQAEDRFVRRKKKAAAAAGGKKRSYTKDYTEGWVEFRDKRIAKRVAASLHNTPMGARRRSPFRYDLWNLKYLHRFTWSHLSEHLAFERQVRRQRLRAEVAQAKRETDFYLQSVERGQRFLAADGDPARPDGSWTFAQRPTEQELRARKAARPGGRERARLATAQDKARSNKGLLARIFGAPPPSESMEGPSLVRDS [ABT1]
HeLa Kyoto [1]
  solubility in G1/S (log2): -0.95
HeLa Kyoto [2]
  solubility change mitosis (log2): 0.803

## MEDERSFSDICGGRLALQRRYYSPSCREFCLSCPRLSLRSLTAVTCTVWLAAYGLFTLCENSMILSAAIFITLLGLLGYLHFVKIDQETLLIIDSLGIQMTSSYASGKESTTFIEMGKVKDIVINEAIYMQKVIYYLCILLKDPVEPHGISQVVPVFQSAKPRLDCLIEVYRSCQEILAHQKATSTSP [PIGH]
HeLa Kyoto [1]
  solubility in G1/S (log2): -0.116
HeLa Kyoto [2]
  solubility change mitosis (log2): 0.146
